Results taken from patent publication US20100136594.

Columns and labels:
[1] = molecular target: T1, Dipeptide substrate Gly-Arg labeled with alpha-methylcoumarin (AMC)
T1 chain: GR

[2] = molecular target: T2, 20-mer peptide substrate GEIIGGTECKPHSRPYMAYL (SEQ ID NO: 1)
T2 chain: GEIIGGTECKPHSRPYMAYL

B1: Dipeptidyl peptidase I (DPPI) (protein)
chain 1: not shown
chain 2: LPTSWDWRNVHGINFVSPVRNQASCGSCYSFASMGMLEARIRILTNNSQTPILSPQEVVSCSQYAQGCEGGFPYLIAGKYAQDFGLVEEACFPYTGTDSPCKMKEDCFRYYSSEYHYVGGFYGGCNEALMKLELVHHGPMAVAFEVYDDFLHYKKGIYHHTGLR
chain 3: not shown
[1]
  KM: 64 µM
  kcat (Mmin^-1): 5670 min⁻¹
[2]
  KM: 62 µM
  Kcat: about 62 µM, 1.15 sec^-1, and 1.95×10^4 M^-1sec^-1, respectively
  kcat (Mmin^-1): 69 min⁻¹
